This is an account of results in PMC3494747.

Experiment [1] has as its target H2-D^b class I heavy chain, endogenous on RMA-S cells (mouse (endogenous in RMA-S)). The experiment can be described thus: peptide-induced MHC class I surface stabilization assay.
Experiment [2] addresses DLA-88*50801 heavy chain with a FLAG epitope tag at the carboxyl terminus, on BARC3 cells (canine). The experiment can be described thus: flow cytometry on cells. Background: In flow cytometry, cells or beads pass a laser one at a time.
For experiment [3] the target is unchanged. Kind of experiment: dissociation of peptide-MHC complexes from the cell surface under brefeldin A.

Sequence of H2-D^b class I heavy chain, endogenous on RMA-S cells (mouse (endogenous in RMA-S)) (P01899 25-362): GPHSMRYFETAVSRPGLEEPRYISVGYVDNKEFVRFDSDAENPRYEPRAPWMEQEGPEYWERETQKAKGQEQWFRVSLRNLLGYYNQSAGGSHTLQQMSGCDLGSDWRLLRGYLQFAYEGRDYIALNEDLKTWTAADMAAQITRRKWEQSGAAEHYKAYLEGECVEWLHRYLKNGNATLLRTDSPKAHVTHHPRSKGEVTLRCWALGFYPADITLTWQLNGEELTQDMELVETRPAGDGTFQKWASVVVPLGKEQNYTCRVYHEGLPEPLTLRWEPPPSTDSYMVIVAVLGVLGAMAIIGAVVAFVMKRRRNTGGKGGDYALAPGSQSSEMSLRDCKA

For “NP396 peptide (LCMV-derived immunodominant peptide)”, the MFI of anti-H2-D^b staining of peptide-loaded RMA-S cells in experiment [1] was found to be 217 MFI. In experiment [2], “murine β2-microglobulin (from UniProt P01887 21-119) (natural protein)” returned an MFI of anti-murine β2M staining (K11-pulsed BARC3 cells) of 281 MFI. The molecule KLFSGELTK [K9 peptide] came in with a dissociation half-life (t1/2), first experiment in experiment [3] of 1.9 h. On the same count and under the same terms, to RFLDKDGFIDK [K11 peptide] belongs 6 h.
